Results taken from PMC9460772 (2022).

Target: PPIA (Homo sapiens, UniProt P62937)
Experiment: NMR

With PRPRPRPRPRPRPRPRPRPRPRPRPRPRPRPRPRPRPRPR [PR20 proline-arginine dipeptide repeat] the Kd was 23 µM.
